Source: patent US20220089784A1 (University of California, published 2022)

B1: 1C10 scFv (scFv)
scFv: QIQLLQPGTELVRPGTSVKLSCKASGYTFTNYWMHWVKQRPGQGLEWIGVIDPSDSYTNYNQKFKGKATLTVDTSSSTAYMQLSSLTFEDSAVYYCARYSGPYAMDYWGQGTTLTVSAVDLKSGGSTSGSGKPGSGEGSSGSAREIVLTQSPASLAVSLGQRATISCRACESVDYDGDSYMNWYQQKPGQPPKLLIYAASNLESGIPARFSGSGSGTDFTLNIHPVEEEDAATYYCLQSNEAPWTFGGGTKLEIK
notes: mouse
B2: 10B4 scFv (scFv)
scFv: QVQLKESGPGLVKPSQTVSLTCTVTGYSITNGNHWWNWIRQVSGSKLEWIGYISSSGYTDINPSLKSRISITRDTSKNQLFLQLNSVTTEDIATYYCARDDGYYEALDYWGQGTSVTVSSVDLKSGGSTSGSGKPGSGEGSSGSARDIVMSQSPAIMSASPGEKVTLTCSASSSVSSNYLYWYQQKPGSSPKLWIYSTSNLASGVPARFSGSGSGTSYSLTISRVEAEDAATYYCQQWSSNPPTFGGGTKLEIK
notes: mouse
B3: 1D8 scFv (scFv)
scFv: EVQLQESGAELVRPGTSVKLSCKASGYTFTSYWMHWVKQRPGQGLEWIGVIDPSDSYTNYNQKFKGKATLTVDTSSSTAYMQLSSLTSEDSAVYYCARGSSGYVNYWGQGTTLTVSSVDLKSGGSTSGSGKPGSGEGSSGSARDIVMSQSPASLAVSLGQRATISCRASESVDYDGDSYMNWYQQKPGQPPKLLIYAASNLESGIPARFSGSGSGTDFTLNIHPVEEEDAATYYCLQSNEAPWTFGGGTKLEIK
notes: mouse
B4: 9B2 scFv (scFv)
scFv: QVQLQQSGAELVRPGASVKLSCTASGFNIEDDYMHWVKQRPEQGLEWIGRIDPANGNTEYAPKFQDKATITADTSSNTAYLQLSRLTSEDTAVYYCARGGWLGNYYAMDYWGQGTSVTVSSVDLKSGGSTSGSGKPGSGEGSSGSARDIVMTQTPLTLSVTIGQPASISCRSSQSLLHNYGNTYLHWYLQKPGQSPKLLIYKVSNRFSGVPDRFSGSGSGTDFTLKISRVEAEDLGVYFCSQGTHVPWTFGGGTKLEIK
notes: mouse
B5: 12A11 scFv (scFv)
scFv: DVQLQESGPGLVKPSQSLSLTCSVTGYSITGGYYWNWIRQFPGNKLEWMGYISYDGSNNYNPSLKNRISITRDTSKNQFFLKLNSVTTEDTATYYCARNMGLWYFDVWGTGTPVTVSAVDLKSGGSTSGSGKPGSGEGSSGSARQIVLTQSPANLSASPGEKVTMTCSASSSVSYMHWYQQKPGSSPKPWIYATSNLASGVPARFSGSGSGTSYSLTISRMEAEDAATYYCQQWSSYPPMYTFGGGTKLELK
notes: mouse
B6: 10H11 scFv (scFv)
scFv: QIQLLQSGAELVKPGASVKLSCTASGFNIKDYYMHWVKQRPEQGLEWIGRIDPEDGDTEYAPKFQGKATMTADTSSNTAYLQLSSLTSEDSAVYFCARLNYDYPYWYFDVWGTGTTLTVSSVDLKSGGSTSGSGKPGSGEGSSGSARQIVLTQSPAIMSASPGEKVTMTCSASSSVSYMYWYQQKPGSSPRLLIYDTSNLASGVPVRFSGSGSGTSYSLTISRMEAEDAATYYCQQWSSYPLTFGAGTRLELK
notes: mouse
B7: 10F9 scFv (scFv)
scFv: EVQLQQSGAELVKPGASVKLSCKASGYTFTSYWMHWIKQRPGQGLEWIGVIDPSDSYTNYNQKFKGKATLTVDTSSSTAYMQLSSLTSEDSAVYYCATGGNGFFDYWGQGTTLTVSSVDLKSGGSTSGSGKPGSGEGSSGSARDIVLTQSPASLAVSLGQRATISCRASESVDYDGDSYMNWYQQKPGQPPKLLIYAASNLESGIPARFSGSGSGTDFTLNIHPVEEEDAATYYCLQSNEAPWTFGGGTKLELK
notes: mouse
B8: 7C8 scFv (scFv)
scFv: LQLKQSGPGLVKPSQSLSLTCSVTGYSITSGYYWYWIRQFPGNKLEWMGYISYDGSNNYNPSLKNRISITRDTSKNQFFLKLNSVTTEDTATYYCARNLGLWYFDVWGTGTPLTVSSVDLKSGGSTSGSGKPGSGEGSSGSAREIVLTQSPAILSASPGEKVTMTCRASSSVRYMHWYQQKPGSSPKPWIYATSNLASGVPARFSGSGSGTSYSLTISRVEAEDAATYYCQQWSGNAPTFGGGTKLEIK
notes: mouse
B9: 1D9 scFv (scFv)
scFv: EVKLVESGGDLVKPGGSLKLSCAASGFTFSSYGMSWVRQTPDKRLEWVATISSGGSYTYYPDNVKGRFTISRDNAKNNLFLQMSHLKSEDTAMYYCARDWDYYYGSYWYFDVWGTGTSVTVSSVDLKSGGSTSGSGKPGSGEGSSGSARENVLTQSPAILSASPGEKVTMTCRASSSVSYMHWYQQKPGSSPRLLIYDTSNLASGVPVRFSGSGSGTSYSLTISRMEAEDAATYYCQQWSSYPYTFGGGTKLEIK
notes: mouse
B10: 10B12 scFv (scFv)
scFv: EVQLQQSGAELVRPGTSVKLSCKSSGYTFTSDWMHWVIQRPGQGLEWIGVIDPSDSYTNYNQKFKGKATLTVDTSSSTAYMHLSSLTSEDSAVYYCARREGHYYGKAMDYWGQGTSVTVSSVDLKSGGSTSGSGKPGSGEGSSGSARDIVMSQSPASLAVSLGQRATISCRASESVDYDGDSYMNWYQQKPGQPPKLLIYAASNLESGIPARFSGSGSGTDFTLNIHPVEEEDAATYYCLQSNEAPWTFGGGTKLEIK
notes: mouse
B11: 1D2 scFv (scFv)
scFv: QVQLKESGAELMKPGASVKLSCKATGYTFTGYWIEWVKQRPGHGLEWIGEILPGSGSTNYNEKFKGKATFTADTSSNTAYMQLSSLTTEDSAIYYCASIYYGHDYWGQGTTLTVSSVDLKSGGSTSGSGKPGSGEGSSGSARDIVMTQSPKFMSTSVGDRVSVTCKASQNVGTNVAWYQQKPGQSPKALIYSASYRYSGVPDRFTGSGSGTDFTLTISNVQSEDLAEYFCQQYNSYPYTFGGGTKLEIK
notes: mouse
B12: 1H5 scFv (scFv)
scFv: EVQLQQSGAELVRPGTSVKLSCKASDYTFTNYWTHWVKQRPGQGLEWIGVIDPSDSYTNYNQKFKGKATLTVDTSSSTAYMQLSSLTSEDSAVYYCARGYYDTMDYWGQGTTVTVSSVDLKSGGSTSGSGKPGSGEGSSGSARDIVLTQSPASLAVSLGQRATISCRASESVDYDGDSYMNWYQQKPGQPPKLLIYAASNLESGIPARFSGSGSGTDFTLNIHPVEEEDAATYYCLQSNEAPWTFGGGTKLEIK
notes: mouse
B13: ING2 scFv (scFv, V domains shown)
VH: QVQLVQSGAEVKKPGSSVKVSCKASGDTFNRNAIAWVRQAPGQGLEWMGRIIPNLRTTHYAQKFQGRVAITADKHTNTVFMELSSLRSEDTAVYYCARDPYYYSYMDVWGKGTTVTVSS
VL: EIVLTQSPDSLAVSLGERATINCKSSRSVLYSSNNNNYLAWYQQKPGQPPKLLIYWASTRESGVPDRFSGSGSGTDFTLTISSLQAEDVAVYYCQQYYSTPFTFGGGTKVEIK
B14: 10H10 scFv (scFv)
scFv: QVQLQQSGAELVRPGTSVKLSCKASGYTFTSYWMHWVKQRPGQGLEWIGVIDPSDSYTNYNQKFKGKATLTVDTSSSTAYMQLSSLTSEDSAVYYCARGGGRSSLDYWGQGTSVTVSSVDLKSGGSTSGSGKPGSGEGSSGSARDVVMTQTPASLAVSLGQRATISCKASQSVDYDGDSYMNWYQQKPGQPPKLLIYAASSLESGIPARFSGSGSGTDFTLNIHPVEEEDAATYYCQQSNEDPYTFGGGTKLEIK
notes: mouse
B15: 11D8 scFv (scFv)
scFv: EVQLQQSGAELVRPGTSVKLSCKASGYTFTSYWMHWVKQRPGQGLEWIGVIDPSDSYTNYNQKFKGKATLTVDTSSSTAYMQLSSLASEDSAVYYCARYPGNRAMDYWGQGTSVTVSSVDLKSGGSTSGSGKPGSGEGSSGSARDIVLTQSPASLAVSLGQRATISCRASESVDYDGDSYMNWYQQKPGQPPKLLIYAASNLESGIPARFSGSGSGTDFTLNIHPVEEEDAATYYCLQSNEAPWTFGGGTKLEIK
notes: mouse

What follows are binders tested against BoNT/A light chain (recombinant) (Clostridium botulinum, UniProt P0DPI0 1-448) (assay: yeast scFv FACS).

| Binder | Kd [nM] |
| --- | --- |
| B1 | 4.85 |
| B2 | 1.53 |
| B3 | 3.35 |
| B4 | 0.67 |
| B5 | 25.8 |
| B6 | 0.92 |
| B7 | 0.09 |
| B8 | 0.94 |
| B9 | 9.13 |
| B10 | 0.53 |
| B11 | 6.4 |
| B12 | 10.6 |
| B13 | > 16.3 |
| B14 | 11.1 |
| B15 | 0.22 |

Each binder was assayed against BoNT/A1 holotoxin (Hall hyper) (Clostridium botulinum, UniProt P0DPI0 2-1296) (assay: yeast scFv FACS).

| Binder | binding result | Kd [nM] |
| --- | --- | --- |
| B1 | no binding | – |
| B2 | – | > 500 |
| B3 | no binding | – |
| B4 | – | 232 |
| B5 | – | 0.66 |
| B6 | no binding | – |
| B7 | – | > 500 |
| B8 | – | 0.73 |
| B9 | no binding | – |
| B10 | no binding | – |
| B11 | no binding | – |
| B12 | no binding | – |
| B13 | – | 0.11 |
| B14 | no binding | – |
| B15 | no binding | – |

Each binder was assayed against BoNT/A2 holotoxin (FRI-H1A2) (Clostridium botulinum, UniProt Q45894 2-1296) (assay: yeast scFv FACS).
Sequence of BoNT/A2 holotoxin (FRI-H1A2) (Q45894 2-1296): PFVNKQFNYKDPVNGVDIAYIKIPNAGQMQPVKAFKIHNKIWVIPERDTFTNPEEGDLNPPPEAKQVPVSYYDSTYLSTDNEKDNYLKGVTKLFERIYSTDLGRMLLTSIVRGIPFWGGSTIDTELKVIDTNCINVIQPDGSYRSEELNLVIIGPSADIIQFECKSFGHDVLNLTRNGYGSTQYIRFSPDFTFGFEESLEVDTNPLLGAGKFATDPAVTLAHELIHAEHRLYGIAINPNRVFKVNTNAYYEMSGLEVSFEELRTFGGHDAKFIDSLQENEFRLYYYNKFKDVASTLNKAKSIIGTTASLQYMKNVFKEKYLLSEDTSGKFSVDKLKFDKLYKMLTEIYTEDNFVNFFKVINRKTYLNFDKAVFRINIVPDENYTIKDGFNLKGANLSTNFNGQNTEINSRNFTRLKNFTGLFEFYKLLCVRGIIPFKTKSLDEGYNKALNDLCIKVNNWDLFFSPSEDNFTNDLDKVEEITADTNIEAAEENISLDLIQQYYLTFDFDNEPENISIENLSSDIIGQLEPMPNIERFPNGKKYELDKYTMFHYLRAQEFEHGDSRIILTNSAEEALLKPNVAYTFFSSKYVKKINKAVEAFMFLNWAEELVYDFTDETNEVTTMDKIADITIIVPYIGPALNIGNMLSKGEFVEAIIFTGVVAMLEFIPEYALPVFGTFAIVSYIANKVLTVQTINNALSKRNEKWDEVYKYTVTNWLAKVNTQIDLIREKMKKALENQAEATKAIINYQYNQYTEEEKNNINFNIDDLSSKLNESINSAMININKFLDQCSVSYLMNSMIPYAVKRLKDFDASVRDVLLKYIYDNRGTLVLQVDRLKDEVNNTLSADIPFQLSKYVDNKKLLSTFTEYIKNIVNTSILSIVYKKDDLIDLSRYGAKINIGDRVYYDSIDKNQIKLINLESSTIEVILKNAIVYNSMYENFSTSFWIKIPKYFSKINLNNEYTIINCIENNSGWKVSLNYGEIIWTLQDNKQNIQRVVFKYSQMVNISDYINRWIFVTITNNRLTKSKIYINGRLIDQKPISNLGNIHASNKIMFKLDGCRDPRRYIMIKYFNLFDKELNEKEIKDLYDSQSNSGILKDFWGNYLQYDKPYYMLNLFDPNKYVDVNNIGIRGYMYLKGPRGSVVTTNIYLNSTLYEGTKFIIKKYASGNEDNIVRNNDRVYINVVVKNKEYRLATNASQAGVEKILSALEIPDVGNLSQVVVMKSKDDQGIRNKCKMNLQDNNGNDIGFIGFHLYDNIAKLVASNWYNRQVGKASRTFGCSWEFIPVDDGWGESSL

| Binder | binding result | Kd [nM] |
| --- | --- | --- |
| B1 | no binding | – |
| B2 | – | 252 |
| B3 | no binding | – |
| B4 | – | 154 |
| B5 | – | 2.08 |
| B6 | no binding | – |
| B7 | – | > 500 |
| B8 | – | 0.45 |
| B9 | no binding | – |
| B10 | – | 140 |
| B11 | no binding | – |
| B12 | no binding | – |
| B13 | – | 0.12 |
| B14 | no binding | – |
| B15 | no binding | – |
